For assay [1], the target named is Vangl2 lacking the Prickle-binding domain (UniProt Q91ZD4). Kind of assay: co-IP.
Assay [2] concerns the target Vangl2 lacking the PDZ-binding motif at the C-terminal end. Kind of assay: co-IP.

Experimental findings from PMC4221783 are described below.

Sequence of Vangl2 lacking the PDZ-binding motif at the C-terminal end (P84889 whole entry): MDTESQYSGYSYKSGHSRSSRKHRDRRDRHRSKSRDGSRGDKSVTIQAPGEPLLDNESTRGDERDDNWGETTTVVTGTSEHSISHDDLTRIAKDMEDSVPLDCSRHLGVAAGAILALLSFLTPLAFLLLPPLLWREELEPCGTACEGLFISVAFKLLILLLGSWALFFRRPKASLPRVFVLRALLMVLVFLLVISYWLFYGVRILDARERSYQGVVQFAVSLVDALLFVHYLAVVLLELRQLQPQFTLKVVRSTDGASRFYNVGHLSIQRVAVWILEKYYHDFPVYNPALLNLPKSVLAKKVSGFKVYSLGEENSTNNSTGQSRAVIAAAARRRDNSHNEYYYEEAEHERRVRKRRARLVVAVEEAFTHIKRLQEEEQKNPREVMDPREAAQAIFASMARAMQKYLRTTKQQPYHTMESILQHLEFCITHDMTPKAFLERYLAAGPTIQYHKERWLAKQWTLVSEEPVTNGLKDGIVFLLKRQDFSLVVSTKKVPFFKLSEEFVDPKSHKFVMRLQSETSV
Sequence of Vangl2 lacking the Prickle-binding domain (Q91ZD4 whole entry, the tested form may be a part): as the sequence (P84889 whole entry) above

Regarding “E-cadherin (from UniProt P09803 157-884) (natural protein)”, the association in co-IP, percent of WT in assay [1] turned out to be 28.4%; in assay [2] it was 87.1%.
